{"source": "IntAct's records for PubMed 32296183", "parents": {"B1": {"name": "Dolichol kinase (Homo sapiens), Q9UPQ8 (parent)", "chain": "MTRECPSPAPGPGAPLSGSVLAEAAVVFAVVLSIHATVWDRYSWCAVALAVQAFYVQYKWDRLLQQGSAVFQFRMSANSGLLPASMVMPLLGLVMKERCQTAGNPFFERFGIVVAATGMAVALFSSVLALGITRPVPTNTCVILGLAGGVIIYIMKHSLSVGEVIEVLEVLLIFVYLNMILLYLLPRCFTPGEALLVLGGISFVLNQLIKRSLTLVESQGDPVDFFLLVVVVGMVLMGIFFSTLFVFMDSGTWASSIFFHLMTCVLSLGVVLPWLHRLIRRNPLLWLLQFLFQTDTRIYLLAYWSLLATLACLVVLYQNAKRSSSESKKHQAPTIARKYFHLIVVATYIPGIIFDRPLLYVAATVCLAVFIFLEYVRYFRIKPLGHTLRSFLSLFLDERDSGPLILTHIYLLLGMSLPIWLIPRPCTQKGSLGGARALVPYAGVLAVGVGDTVASIFGSTMGEIRWPGTKKTFEGTMTSIFAQIISVALILIFDSGVDLNYSYAWILGSISTVSLLEAYTTQIDNLLLPLYLLILLMA"}}}
{"variants_of": "B1", "conditions": "with kca10_human KCNA10, Q16322"}
{"variant": "MTRECPSPAPGPGAPLSGSVLAEAAVVFAVVLSIHATVWDRYSWCAVALAVQAFYVQYKWDRLLQQGSAVFQFRMSANSGLLPASMVMPLLGLVMKERCQTAGNPFFERFGIVVAATGMAVALFSSVLALGITRPVPTNTCVILGLAGGVIIYIMKHSLSVGEVIEVLEVLLIFVYLNMILLYLLPRCFTPGEALLVLGGISFVLNQLIKRSLTLVESQGDPVDFFLLVVVVGMVLMGIFFSTLFVFMDSGTWASSIFFHLMTCVLSLGVVLPWLHRLIRRNPLLWLLQFLFQTDTRIYLLAYWSLLATLACLVVLYQNAKRSSSESKKHQAPTIARKYFHLIVVATYIPGIIFDRPLLYVAATVCLAVFIFLEYVRYFRIKPLGHTLRSFLSLFLDERDSGPLILTHIYLLLGMSLPIWLIPRPCTQKGSLGGARALVPSAGVLAVGVGDTVASIFGSTMGEIRWPGTKKTFEGTMTSIFAQIISVALILIFDSGVDLNYSYAWILGSISTVSLLEAYTTQIDNLLLPLYLLILLMA", "note": "[Y441S]", "effect of a mutation on the interaction": "with no effect"}
{"variants_of": "B1", "conditions": "with kcna1_human KCNA1, Q09470"}
{"variant": "MTRECPSPAPGPGAPLSGSVLAEAAVVFAVVLSIHATVWDRYSWCAVALAVQAFYVQYKWDRLLQQGSAVFQFRMSANSGLLPASMVMPLLGLVMKERCQTAGNPFFERFGIVVAATGMAVALFSSVLALGITRPVPTNTCVILGLAGGVIIYIMKHSLSVGEVIEVLEVLLIFVYLNMILLYLLPRCFTPGEALLVLGGISFVLNQLIKRSLTLVESQGDPVDFFLLVVVVGMVLMGIFFSTLFVFMDSGTWASSIFFHLMTCVLSLGVVLPWLHRLIRRNPLLWLLQFLFQTDTRIYLLAYWSLLATLACLVVLYQNAKRSSSESKKHQAPTIARKYFHLIVVATYIPGIIFDRPLLYVAATVCLAVFIFLEYVRYFRIKPLGHTLRSFLSLFLDERDSGPLILTHIYLLLGMSLPIWLIPRPCTQKGSLGGARALVPSAGVLAVGVGDTVASIFGSTMGEIRWPGTKKTFEGTMTSIFAQIISVALILIFDSGVDLNYSYAWILGSISTVSLLEAYTTQIDNLLLPLYLLILLMA", "note": "[Y441S]", "effect of a mutation on the interaction": "with no effect"}
{"variants_of": "B1", "conditions": "with synpr_human SYNPR"}
{"variant": "MTRECPSPAPGPGAPLSGSVLAEAAVVFAVVLSIHATVWDRYSWCAVALAVQAFYVQYKWDRLLQQGSAVFQFRMSANSGLLPASMVMPLLGLVMKERCQTAGNPFFERFGIVVAATGMAVALFSSVLALGITRPVPTNTCVILGLAGGVIIYIMKHSLSVGEVIEVLEVLLIFVYLNMILLYLLPRCFTPGEALLVLGGISFVLNQLIKRSLTLVESQGDPVDFFLLVVVVGMVLMGIFFSTLFVFMDSGTWASSIFFHLMTCVLSLGVVLPWLHRLIRRNPLLWLLQFLFQTDTRIYLLAYWSLLATLACLVVLYQNAKRSSSESKKHQAPTIARKYFHLIVVATYIPGIIFDRPLLYVAATVCLAVFIFLEYVRYFRIKPLGHTLRSFLSLFLDERDSGPLILTHIYLLLGMSLPIWLIPRPCTQKGSLGGARALVPSAGVLAVGVGDTVASIFGSTMGEIRWPGTKKTFEGTMTSIFAQIISVALILIFDSGVDLNYSYAWILGSISTVSLLEAYTTQIDNLLLPLYLLILLMA", "note": "[Y441S]", "effect of a mutation on the interaction": "disrupting interaction strength"}
{"variants_of": "B1", "conditions": "with tm45b_human TMEM45B"}
{"variant": "MTRECPSPAPGPGAPLSGSVLAEAAVVFAVVLSIHATVWDRYSWCAVALAVQAFYVQYKWDRLLQQGSAVFQFRMSANSGLLPASMVMPLLGLVMKERCQTAGNPFFERFGIVVAATGMAVALFSSVLALGITRPVPTNTCVILGLAGGVIIYIMKHSLSVGEVIEVLEVLLIFVYLNMILLYLLPRCFTPGEALLVLGGISFVLNQLIKRSLTLVESQGDPVDFFLLVVVVGMVLMGIFFSTLFVFMDSGTWASSIFFHLMTCVLSLGVVLPWLHRLIRRNPLLWLLQFLFQTDTRIYLLAYWSLLATLACLVVLYQNAKRSSSESKKHQAPTIARKYFHLIVVATYIPGIIFDRPLLYVAATVCLAVFIFLEYVRYFRIKPLGHTLRSFLSLFLDERDSGPLILTHIYLLLGMSLPIWLIPRPCTQKGSLGGARALVPSAGVLAVGVGDTVASIFGSTMGEIRWPGTKKTFEGTMTSIFAQIISVALILIFDSGVDLNYSYAWILGSISTVSLLEAYTTQIDNLLLPLYLLILLMA", "note": "[Y441S]", "effect of a mutation on the interaction": "disrupting interaction strength"}
{"variants_of": "B1", "conditions": "with cd79a_human CD79A"}
{"variant": "MTRECPSPAPGPGAPLSGSVLAEAAVVFAVVLSIHATVWDRYSWCAVALAVQAFYVQYKWDRLLQQGSAVFQFRMSANSGLLPASMVMPLLGLVMKERCQTAGNPFFERFGIVVAATGMAVALFSSVLALGITRPVPTNTCVILGLAGGVIIYIMKHSLSVGEVIEVLEVLLIFVYLNMILLYLLPRCFTPGEALLVLGGISFVLNQLIKRSLTLVESQGDPVDFFLLVVVVGMVLMGIFFSTLFVFMDSGTWASSIFFHLMTCVLSLGVVLPWLHRLIRRNPLLWLLQFLFQTDTRIYLLAYWSLLATLACLVVLYQNAKRSSSESKKHQAPTIARKYFHLIVVATYIPGIIFDRPLLYVAATVCLAVFIFLEYVRYFRIKPLGHTLRSFLSLFLDERDSGPLILTHIYLLLGMSLPIWLIPRPCTQKGSLGGARALVPSAGVLAVGVGDTVASIFGSTMGEIRWPGTKKTFEGTMTSIFAQIISVALILIFDSGVDLNYSYAWILGSISTVSLLEAYTTQIDNLLLPLYLLILLMA", "note": "[Y441S]", "effect of a mutation on the interaction": "with no effect"}
{"variants_of": "B1", "conditions": "with cxa8_human GJA8, P48165"}
{"variant": "MTRECPSPAPGPGAPLSGSVLAEAAVVFAVVLSIHATVWDRYSWCAVALAVQAFYVQYKWDRLLQQGSAVFQFRMSANSGLLPASMVMPLLGLVMKERCQTAGNPFFERFGIVVAATGMAVALFSSVLALGITRPVPTNTCVILGLAGGVIIYIMKHSLSVGEVIEVLEVLLIFVYLNMILLYLLPRCFTPGEALLVLGGISFVLNQLIKRSLTLVESQGDPVDFFLLVVVVGMVLMGIFFSTLFVFMDSGTWASSIFFHLMTCVLSLGVVLPWLHRLIRRNPLLWLLQFLFQTDTRIYLLAYWSLLATLACLVVLYQNAKRSSSESKKHQAPTIARKYFHLIVVATYIPGIIFDRPLLYVAATVCLAVFIFLEYVRYFRIKPLGHTLRSFLSLFLDERDSGPLILTHIYLLLGMSLPIWLIPRPCTQKGSLGGARALVPSAGVLAVGVGDTVASIFGSTMGEIRWPGTKKTFEGTMTSIFAQIISVALILIFDSGVDLNYSYAWILGSISTVSLLEAYTTQIDNLLLPLYLLILLMA", "note": "[Y441S]", "effect of a mutation on the interaction": "with no effect"}
